# Assays:
# [1] = tested on: T1, Ah-BarR WT (Acidianus hospitalis), ORF:d4ab5e4b; assay: in-gel Cu-OP footprinting; settings: 20 mM Tris-HCl pH 8.0, 50 mM NaCl, 0.4 mM EDTA, 0.1 mM DTT, 1 mM MgCl2, 12.5% glycerol, 25 ug/mL salmon sperm DNA, 25 min at 37 C (EMSA)
# T1 sequence: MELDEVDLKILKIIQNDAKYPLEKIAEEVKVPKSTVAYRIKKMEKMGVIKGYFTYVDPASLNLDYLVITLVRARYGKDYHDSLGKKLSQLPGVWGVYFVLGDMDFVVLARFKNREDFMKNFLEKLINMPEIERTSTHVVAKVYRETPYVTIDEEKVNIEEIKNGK
# [2] = tested on: Ah-BarR WT (Acidianus hospitalis); assay: EMSA; settings: no beta-alanine; octamer concentration; 20 mM Tris-HCl pH 8.0, 50 mM NaCl, 0.4 mM EDTA, 0.1 mM DTT, 1 mM MgCl2, 12.5% glycerol, 25 ug/mL salmon sperm DNA, 25 min at 37 C (EMSA)
# [3] = tested on: T1, Ah-BarR WT (Acidianus hospitalis), ORF:d4ab5e4b; assay: EMSA; settings: 20 mM Tris-HCl pH 8.0, 50 mM NaCl, 0.4 mM EDTA, 0.1 mM DTT, 1 mM MgCl2, 12.5% glycerol, 25 ug/mL salmon sperm DNA, 25 min at 37 C (EMSA)
# [4] = tested on: T2, Ah-BarR trunc (Acidianus hospitalis), ORF:d4ab5e4b; assay: EMSA; settings: 20 mM Tris-HCl pH 8.0, 50 mM NaCl, 0.4 mM EDTA, 0.1 mM DTT, 1 mM MgCl2, 12.5% glycerol, 25 ug/mL salmon sperm DNA, 25 min at 37 C (EMSA)
# T2 sequence: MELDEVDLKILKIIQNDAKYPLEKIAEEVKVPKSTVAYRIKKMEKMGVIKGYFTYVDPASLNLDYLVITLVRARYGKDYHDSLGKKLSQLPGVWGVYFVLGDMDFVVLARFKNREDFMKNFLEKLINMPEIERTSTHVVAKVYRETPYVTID
# [5] = molecular target: Ah‐BarR M103N (P ah‐barR promoter, mKate2 reporter) (Acidianus hospitalis, UniProt F4B5V3, M103N); assay: cell-based; type: cell-based; settings: BS1 M103N; 5 mM glutamine, 20 mg/L naringenin (Figure A7)
# Chain of Ah‐BarR M103N (P ah‐barR promoter, mKate2 reporter) (F4B5V3 entry or part of it M103N): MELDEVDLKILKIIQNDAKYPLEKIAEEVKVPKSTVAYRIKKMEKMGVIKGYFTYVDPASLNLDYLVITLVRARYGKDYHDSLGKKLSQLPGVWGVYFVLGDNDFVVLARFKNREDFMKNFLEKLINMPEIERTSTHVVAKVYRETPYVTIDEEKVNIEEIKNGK
# Description: (§1) Reporter gene assays were performed as previously described (Bernauw et al., [2022]). pPRC6 and pITC variants (Table 1) were co‐transformed in E. coli MG1655 chemical competent cells using heat shock transformation. Transformant colonies of the Ah‐BarR biosensor strains were picked to inoculate wells of a transparent 96‐well plate (Greiner Bio‐One), each well filled with 200 µL of MOPS EZ Rich Defined medium (Teknova), prepared without the addition of the 5X EZ Supplement, after which the plate was incubated overnight in a ThermoMixer C (Eppendorf) at 30°C and 300 rpm. Next, a black 96‐well plate was filled with a naringenin solution prepared in ethanol (250 mg/L or 2.5 g/L), after which a Breathe‐Easy sealing membrane (Sigma‐Aldrich) was applied and the ethanol was evaporated in a ThermoMixer C (Eppendorf) at 75°C. […] Finally, the plate was sealed again using a Breathe‐Easy sealing membrane (Sigma‐Aldrich).
# (§2) Plates were incubated at 30°C and 300 rpm for 40 h in a Synergy H1 microplate reader (BioTek) with measurements of OD600 and fluorescence (excitation wavelength: 588 nm, emission wavelength: 633 nm) being taken every 20 min. The gain was set to 140 for all measurements, except for the measurements with the amino acids (pools and separately), where the gain was set to 150. […] In addition, wells solely containing medium were measured as well to correct for the background signal.
# (§3) Reporter expression was analyzed at t = 30 h, when all cultures had reached the stationary phase, by taking into account three subsequent time points (t–1, t, t+1). The corrected FL/OD600 value was calculated for each replicate (n = 4) as follows: FL/ODcor=FLt−1−FLmed,t−1/ODt−1−ODmed,t−1+FLt−FLmed,t/ODt−ODmed,t+FLt+1−FLmed,t+1/ODt+1−ODmed,t+1/3
# (§4) Response curves were fitted to a Hill function of the shape P(M)=b+aM^n/θ^n+M^nforaβ−alanine−inducible responseb+aθ^n/θ^n+M^nforaβ−alanine−repressible response according to a previously published procedure (Landry et al., [2018]) with minor adaptations. […] Briefly, lmfit 1.1.0 was used to fit all replicates of a response curve to the appropriate Hill function using the Levenberg‐Marquardt algorithm (Moré, [1978]; Newville et al., [2016]). […] The dynamic range was estimated as μ=a/b .
# [6] = molecular target: Ah‐BarR M103T (P ah‐barR promoter, mKate2 reporter) (Acidianus hospitalis, UniProt F4B5V3, M103T); assay: cell-based; type: cell-based; settings: BS1 M103T; 5 mM glutamine, 20 mg/L naringenin (Figure A7)
# Chain of Ah‐BarR M103T (P ah‐barR promoter, mKate2 reporter) (F4B5V3 entry or part of it M103T): as the sequence (F4B5V3 entry or part of it M103N) above, with N103T counted along it
# Description: as §1, §2, §3, §4
molecule,measurement,setting,value
CCTTATACATTTTATCGACGAATAAGTTGAATATACAACTAAATAAAAAGGGATTATCTTGGAAATTATACAGAGACATTCCAAAGCAAGATTTAAACTATTGTACTTTTTACAATAGCTGTCCTAAAATACTTAAATTCCGTCTAAACTACTAGTATCGCATGGATG (double strand) [WT promoter short 168 bp],binding,[1],binds
WT promoter 274 bp,Kd,[2],12 nM
CTTTAAGTCTACCTCGTCTAGCTCCATAATATATAATTAGAAGAGGTAATTTAAACCTTATACATTTTATCGACGAATAAGTTGAATATACAATTTAATAAAAAGGGATTATCTTGGAAATTATATTTAGACATTCCAAAGCAAGATTTAAACTATTGTACTTTTTACAATAGCTGTCCTAAAATACTTAAATTCCGTCTAAACTACTAGTATCGCATGGATGAAGATGTCGTTAAATTGGTTAAAGAACATACTTTCGGAACTTGGAAAGTTC (double strand) [Promoter mutant 2 (mut2) 274 bp],Kd,[3],36 nM
CTTTAAGTCTACCTCGTCTAGCTCCATAATATATAATTAGAAGAGGTAATTTAAACCTTATACATTTTATCGACGAATAAGTTGAATATACAACTAAATAAAAAGGGATTATCTTGGAAATTATACAGAGACATTCCAAAGCAAGATTTAAACTATTGTACTTTTTACAATAGCTGTCCTAAAATACTTAAATTCCGTCTAAACTACTAGTATCGCATGGATGAAGATGTCGTTAAATTGGTTAAAGAACATACTTTCGGAACTTGGAAAGTTC (double strand) [WT promoter 274 bp],binding,[4],binds
same,Kd,[3],12 nM
same,binding,[3],binds
NC(=O)CC[C@H](N)C(=O)O [glutamine],glutamine response of reporter expression,[5],did not lead to the acquisition of a glutamine‐specific response
same,glutamine response of reporter expression,[6],did not lead to the acquisition of a glutamine‐specific response
CTTTAAGTCTACCTCGTCTAGCTCCATAATATATAATTAGAAGAGGTAATTTAAACCTTATACATTTTATCGACGAATAAGTTGAATATACAATTTAATAAAAAGGGATTATCTTGGAAATTATACAGAGACATTCCAAAGCAAGATTTAAACTATTGTACTTTTTACAATAGCTGTCCTAAAATACTTAAATTCCGTCTAAACTACTAGTATCGCATGGATGAAGATGTCGTTAAATTGGTTAAAGAACATACTTTCGGAACTTGGAAAGTTC (double strand) [Promoter mutant 1 (mut1) 274 bp],Kd,[3],31 nM
CTTTAAGTCTACCTCGTCTAGCTCCATAATATATAATTAGAAGAGGTAATTTAAACCTTATACATTTTATCGACGAATAAGTTGAATATACAATTTAATAAAAAGGGATTATCTTGGAAATTATATTTAGACATTCCAAAGCAAGATTTAAACTATTGTACTTTTTATTTTAGCTGTCCTAAAATACTTAAATTCCGTCTAAACTACTAGTATCGCATGGATGAAGATGTCGTTAAATTGGTTAAAGAACATACTTTCGGAACTTGGAAAGTTC (double strand) [Promoter mutant 3 (mut3) 274 bp],binding,[3],no binding

# — PMC10201364 (MicrobiologyOpen, 2023)
